# Assay results as given in paper PMC10352601 (Blood, 2023).
# T1: ET3i, a bioengineered human/porcine FVIII chimera (Homo sapiens / Sus scrofa chimera (A1, …, chimera))
# T1 chain: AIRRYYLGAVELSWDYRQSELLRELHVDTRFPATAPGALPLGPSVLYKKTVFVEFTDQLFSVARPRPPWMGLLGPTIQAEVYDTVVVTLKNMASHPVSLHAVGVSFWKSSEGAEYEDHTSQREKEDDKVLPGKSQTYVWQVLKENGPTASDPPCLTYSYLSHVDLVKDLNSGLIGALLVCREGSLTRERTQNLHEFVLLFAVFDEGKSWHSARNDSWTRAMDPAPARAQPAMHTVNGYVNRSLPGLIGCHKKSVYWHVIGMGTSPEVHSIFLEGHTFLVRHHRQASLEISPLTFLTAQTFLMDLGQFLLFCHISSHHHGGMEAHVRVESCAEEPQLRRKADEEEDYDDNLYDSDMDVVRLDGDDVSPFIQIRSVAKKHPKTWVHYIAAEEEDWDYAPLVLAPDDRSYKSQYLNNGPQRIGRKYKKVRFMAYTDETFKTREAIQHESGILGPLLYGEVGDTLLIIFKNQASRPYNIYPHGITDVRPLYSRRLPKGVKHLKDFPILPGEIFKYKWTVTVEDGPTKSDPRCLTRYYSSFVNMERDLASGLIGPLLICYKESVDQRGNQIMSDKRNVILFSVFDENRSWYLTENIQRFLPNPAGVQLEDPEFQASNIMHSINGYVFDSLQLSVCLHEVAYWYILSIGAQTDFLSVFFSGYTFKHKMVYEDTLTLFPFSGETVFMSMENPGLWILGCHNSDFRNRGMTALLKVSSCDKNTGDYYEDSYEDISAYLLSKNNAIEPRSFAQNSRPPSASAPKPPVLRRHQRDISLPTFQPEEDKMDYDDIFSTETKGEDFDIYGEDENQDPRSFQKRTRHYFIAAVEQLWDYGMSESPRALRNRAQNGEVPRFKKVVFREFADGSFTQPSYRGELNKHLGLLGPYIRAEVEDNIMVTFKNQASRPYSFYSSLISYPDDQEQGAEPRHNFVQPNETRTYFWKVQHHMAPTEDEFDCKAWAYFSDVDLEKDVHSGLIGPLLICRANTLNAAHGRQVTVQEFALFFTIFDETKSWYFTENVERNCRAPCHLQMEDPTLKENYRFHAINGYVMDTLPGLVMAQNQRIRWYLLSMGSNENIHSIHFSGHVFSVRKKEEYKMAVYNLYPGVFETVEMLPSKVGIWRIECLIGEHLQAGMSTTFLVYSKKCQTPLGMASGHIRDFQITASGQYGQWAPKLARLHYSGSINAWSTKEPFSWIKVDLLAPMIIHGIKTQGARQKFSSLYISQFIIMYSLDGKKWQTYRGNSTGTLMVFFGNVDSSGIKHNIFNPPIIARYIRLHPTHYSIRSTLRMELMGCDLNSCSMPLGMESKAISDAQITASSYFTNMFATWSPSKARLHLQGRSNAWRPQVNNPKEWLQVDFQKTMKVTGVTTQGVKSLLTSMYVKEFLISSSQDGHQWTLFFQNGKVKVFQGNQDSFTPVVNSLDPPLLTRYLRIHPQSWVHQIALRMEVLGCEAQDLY
# Target: T1, ET3i, a bioengineered human/porcine …
# Test: cell-based or functional assay
binder,measurement,value
"Fab fragment of NB33, a recombinant immunoglobulin G derivative of KM33 (Fab, V domains shown) VH: EVQLVESGGGVVQPGRSLRLSCVDSGLTFSSYGMHWVRQAPGAGLEWVAVISYDGNDKYYADSVKGRFAISRDNAKNTLYLQMNSLTIEDTAVYYCAKDLIESNIAEAFWGQGTLVTVSS VL: DIQMTQSPSSLSASVGDTVTIACRASRDIRNDLAWYQQKPGKAPKLLIYATSRLQSGVPSRFSGSGSFTDFTLTINSLQPDDSATYYCLQDSDYPLTFGGGTKVDIK","neutralization of ET3i by NB33, factor X activation chromogenic assay (IC50)",3.64 nM
